Data from paper PMC5077151, “Wild-Type U2AF1 Antagonizes the Splicing Program Characteristic of U2AF1-Mutant Tumors and Is Required for Cell Survival”.

B1: FXR1 proximal 3' splice site (ssRNA)
RNA: UUUUUCUCAUCUUUAACAGUCACAGUUGCAGAU
B2: FMR1 distal 3' splice site (ssRNA)
RNA: GAAGCAUCAAAUGCUUCUGAAACAGAAUCUGACCA
B3: ATR distal 3' splice site (ssRNA)
RNA: UUGGUUUUAUGUUUCUUCUUUUUAGGCCAAGAC
B4: CEP164 distal 3' splice site (ssRNA)
RNA: CACUUGUCAUCAUUUUUGUUUCUAGAGUGUCCACA
B5: FMR1 proximal 3' splice site (ssRNA)
RNA: GUAUAUAACUUUUAACUCUCGAUAGGAACUAAUUC
B6: ZFAND1 distal 3' splice site (ssRNA)
RNA: CAUUUCCUCCUUUUUGCAUUUUCAGGUGACUGU
B7: CEP164 proximal 3' splice site (ssRNA)
RNA: UUGACUGUCCUUCUCUAUUUUGAAGCCUUCACAGG
B8: MED15 proximal 3' splice site (ssRNA)
RNA: GUCUGUUGUCCCUCUGUCCUCAAAGAUGAUCAC
B9: FXR1 distal 3' splice site (ssRNA)
RNA: UGAAAAAGUUGUCUCCCUUUGGCAGGCAAAAGA
B10: MED15 distal 3' splice site (ssRNA)
RNA: GCCGGCUGAGCCCCUCCACUUCCAGGUCAGCCA
B11: ZFAND1 proximal 3' splice site (ssRNA)
RNA: UAAACACUUGCUAUUAUUAUUUAAGCCUUGAAC
B12: ATR proximal 3' splice site (ssRNA)
RNA: UCUUCCAUAUCCACCUUUUCCUAAGAUGGCAAG

Each binder was assayed against U2AF1 S34F;U2AF2;SF1 (Homo sapiens?;Homo sapiens?;Homo …, UniProt Q01081;P26368-2;Q15637 1-193;85-471;1-255, S34F||) (assay: fluorescence anisotropy; 20 nM 5'-fluorescein RNA, size-exclusion chromatography buffer (composition, pH and temperature not in the material), 384-well plate, 3 replicates). Details: protein: recombinant;recombinant;recombinant; tags: ;;; copies: 1;1;1; label: 5' fluorescein.
Chain of U2AF1 S34F;U2AF2;SF1 (Q01081 1-193 S34F, chain 1 of 3): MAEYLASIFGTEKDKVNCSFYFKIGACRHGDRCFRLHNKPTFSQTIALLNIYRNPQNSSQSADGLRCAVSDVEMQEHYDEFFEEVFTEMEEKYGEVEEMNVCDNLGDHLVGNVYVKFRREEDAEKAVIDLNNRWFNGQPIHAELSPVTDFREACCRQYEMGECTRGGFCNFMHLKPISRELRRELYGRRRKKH
Chain of U2AF1 S34F;U2AF2;SF1 (P26368 other isoform, or with tags, fused parts or gaps S34F|| | S34F S34F, chain 2 of 3): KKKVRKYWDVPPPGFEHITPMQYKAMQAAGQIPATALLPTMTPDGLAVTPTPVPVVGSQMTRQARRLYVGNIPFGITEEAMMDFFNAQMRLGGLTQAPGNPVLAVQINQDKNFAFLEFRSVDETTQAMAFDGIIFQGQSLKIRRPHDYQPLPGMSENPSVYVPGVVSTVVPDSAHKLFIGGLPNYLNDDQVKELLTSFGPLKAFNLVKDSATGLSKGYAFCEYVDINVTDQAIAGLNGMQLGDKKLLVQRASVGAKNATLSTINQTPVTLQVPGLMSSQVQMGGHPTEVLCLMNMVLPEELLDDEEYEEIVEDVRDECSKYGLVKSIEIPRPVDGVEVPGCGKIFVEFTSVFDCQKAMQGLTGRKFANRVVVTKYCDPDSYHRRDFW
Chain of U2AF1 S34F;U2AF2;SF1 (Q15637 1-255, chain 3 of 3): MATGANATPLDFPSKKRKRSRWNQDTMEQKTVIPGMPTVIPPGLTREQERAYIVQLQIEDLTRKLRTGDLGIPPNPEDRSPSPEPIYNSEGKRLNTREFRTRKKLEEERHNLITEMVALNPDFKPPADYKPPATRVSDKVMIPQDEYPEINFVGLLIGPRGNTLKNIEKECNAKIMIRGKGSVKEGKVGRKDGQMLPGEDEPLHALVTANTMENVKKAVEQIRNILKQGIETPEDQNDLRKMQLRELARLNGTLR

Binder	Kd [nM]
B1	38 ± 6
B2	444 ± 58
B3	49 ± 6
B4	447 ± 63
B5	281 ± 44
B6	43 ± 7
B7	49 ± 9
B8	483 ± 106
B9	46 ± 11
B10	32 ± 8
B11	5 ± 1

These binders were tested against U2AF1 WT;U2AF2;SF1 (Homo sapiens?;Homo sapiens?;Homo …, UniProt Q01081;P26368-2;Q15637 1-193;85-471;1-255, ||) in the same assay as above. Details: protein: recombinant;recombinant;recombinant; tags: ;;; copies: 1;1;1; label: 5' fluorescein.
Chain of U2AF1 WT;U2AF2;SF1 (Q01081 1-193, chain 1 of 3): as the sequence (Q01081 1-193 S34F, chain 1 of 3) above, with F34S counted along it
Chain of U2AF1 WT;U2AF2;SF1 (P26368 other isoform, or with tags, fused parts or gaps ||, chain 2 of 3): as the sequence (P26368 other isoform, or with tags, fused parts or gaps S34F|| | S34F S34F, chain 2 of 3) above
Chain of U2AF1 WT;U2AF2;SF1 (Q15637 1-255, chain 3 of 3): as the sequence (Q15637 1-255, chain 3 of 3) above

Binder	Kd [nM]
B1	71 ± 6
B12	188 ± 52
B2	427 ± 20
B3	7 ± 0.5
B4	497 ± 46
B5	188 ± 27
B6	53 ± 4
B7	12 ± 1
B8	208 ± 35
B9	41 ± 6
B10	157 ± 25
B11	24 ± 1
